The text below walks through data of patent US20260109774A1 (JUNO THERAPEUTICS, published 2026).

First the molecules themselves.
T1: human B-cell maturation antigen (BCMA) on cells (human, UniProt Q02223 1-184)
T1 construct: Recombinant on HEK293 or K562 cells, or endogenous on cell lines (H929, RPMI 8226, OPM2, MM1S, Daudi); also called hBCMA; huBCMA
T1 chain: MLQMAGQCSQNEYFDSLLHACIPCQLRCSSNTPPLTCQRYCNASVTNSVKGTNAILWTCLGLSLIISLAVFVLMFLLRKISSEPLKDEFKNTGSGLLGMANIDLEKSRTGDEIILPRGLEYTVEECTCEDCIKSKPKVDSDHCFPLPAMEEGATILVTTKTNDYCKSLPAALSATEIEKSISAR

B1: BCMA-45 scFv (scFv)
scFv: QVQLVQSGGGLVQPGRSLRLSCTASGFTFGDYAMSWFRQAPGKGLEWVGFIRSKAYGGTTEYAASVKGRFTISRDDSKSIAYLQMNSLKTEDTAVYYCAAWSAPTDYWGQGTLVTVSSGGGGSGGGGSGGGGSAIRMTQSPSSLSASVGDRVTITCRASQGIGRSLAWYKQKPGGVPQLLIHDASSLRSGVPSRFSGSGSGTEFTLTISGVQSEDSATYHCQQLNGYPWTFGQGTKVDIK
B2: BCMA-48 scFv (scFv)
scFv: EVQLVESGGGLVKPGGSLRLSCAASGFTFSDYYMSWIRQAPGKGLEWVSYISSSGSTIYYADSVKGRFTISRDNAKNSLYLQMNSLRAEDTAVYYCAKVDGPPSFDIWGQGTMVTVSSGGGGSGGGGSGGGGSQPVLTQPPSVSVAPGKTATITCGGNNIGSKSVHWYQRKPGQGPVVVIQYDTDRPSGIPERFSGSNSGNTATLTISRVEAGDEGDYYCQVWDSSSDHWVFGGGTKLTVL
B3: BCMA-49 scFv (scFv)
scFv: QVQLVESGGGLVKPGGSLRLSCAASGFTFSDYYMSWIRQAPGKGLEWVSYISSSGSTIYYADSVKGRFTISRDNAKNSLYLQMNSLRAEDTAVYYCAKVDGPPSFDIWGQGTMVTVSSGGGGSGGGGSGGGGSLPVLTQPPSVSVAPGKTARITCGGDQIGRKSVHWYQQKPGQAPVLVMSYDSDRPSGIPERFSGSNSGNTATLTISRVEAGDEAAYYCQVWDSSTGQYVVFGGGTKLTVL
B4: BCMA-51 scFv (scFv)
scFv: EVQLVQSGGGLVQPGRSLRLSCTASGFTFGDYAMSWFRQAPGKGLEWVGFIRSKAYGGTTEYAASVKGRFTISRDDSKSIAYLQMNSLKTEDTAVYYCAAWSAPTDYWGQGTLVTVSSGGGGSGGGGSGGGGSAIQLTQSPSTLSASVGDRVAITCRASQNIGDWLAWYQQKPGKAPKLLIFGASILESGVPSRFSGSGSGTDFTLTISSLQPEDVAVYYCQKYDGAPPWTFGQGTKVEIK
B5: BCMA-42 scFv (scFv)
scFv: EVQLLESGGGLVQPGRSLRLSCTASGFTFGDYAMSWFRQAPGKGLEWVGFIRSKAYGGTTEYAASVKGRFTISRDDSKSIAYLQMNSLKTEDTAVYYCAAWSAPTDYWGQGTLVTVSSGGGGSGGGGSGGGGSDIQMTQSPSLVSASVGDRVTITCRASQGIGNGLAWYQQKPGKAPKLLLFAASRLESGVPSRFSGSRSGTDYTLTISSLQPEDVATYYCQQYVEDALTFGGGTKVDIK

The target of the assay is T1, human B-cell maturation antigen (BCMA) …. Description: flow cytometry on BCMA-expressing HEK293 cells vs control cells, crude lysate or bacterial supernatant; clone listed in Table E2. The protocol:
Specific binding of resulting scFv clones to BCMA-expressing HEK293 cells, as compared to control cells not expressing BCMA, was assessed by flow cytometry either with in vitro translated crude cell lysate or with bacterially-produced supernatant.
(In general: A flow cytometer gives signals particle by particle.)
B1: the binding result is on record as “binds”. To B2 belongs “binds”.

Turning to B3, the binding result is listed as “binds”.

In the case of B4, the binding result is “binds”. For the molecule B5, the binding result is “binds”.
